The target of assay [1] is T1, H2C-scFv-LH (human).
T1 construct: also called control antibody H2C-scFv-LH; parent antibody
In words: SPR (Biacore T200), antigen amine-coupled to about 75 RU, antibody 4 and 20 nM, 1:1 Langmuir fit. The procedure: Protein coupling: The huCD3E-AA1-27-huFc protein produced in example 1.2 was diluted to 5.8 μg/mL with an NaAc buffer at pH 4.5. The flow rate was set to 10 μL/min. The chip was activated with a mixture of 1-ethyl-(3-dimethylaminopropyl)carbodiimide (EDC) and N-hydroxysuccinimide (NHS) for the default time of 420 s. The antigen protein huCD3E AA1-27-huFc was immobilized to a level of approximately 75 RU using a coupling mode with a preset coupling amount. The activated groups not bound to the test sample were blocked with ethanolamine.
Sample test condition: A PBS buffer (pH 7.4) containing 0.05% Tween-20 was used as a running buffer, and the running buffer was used as a control antibody test sample. A series of antibody concentrations (4 nM, 20 nM) were set. During sample analysis, the flow rate was set to 30 μL/min, the binding time was 180 s, and the dissociation time was 300 s. After dissociation was completed, regeneration was performed with 10 mM Gly-HCl (pH 2.0) for 20 s to completely remove antibody bound to the antigen.
Parameter fitting: The experiment was run in multiple cycles, with the response signal plotted against analysis time on the abscissa and response value on the ordinate. After dual-reference subtraction, the obtained data were fitted by BIAcore T200 analysis software. The fitting model used was a 1:1 Langmuir binding model, so as to determine affinity indicators such as the binding dissociation constant.

The target of assay [2] is T1, H2C-scFv-LH. In words: BLI (Gator), biotinylated antigen on SA probe, antibody 0.62-40 nM. The protocol:
(§1) Protein biotinylation: The antigen protein huCD3E AA1-27-huFc was diluted to a final concentration of 1 mg/mL, premixed with biotin and reacted at 4° C. for 1 h, and then unreacted free biotin was removed by filtration with an ultrafiltration tube to obtain biotinylated huCD3E AA1-27-huFc (hereinafter referred to as huCD3E-AA1-27-huFc-Biotin).
(§2) In the dark, the sensor was pre-wetted with Q Buffer (SA Probes, ProbeLife). After 10 min, the sample plate (Greiner, 655209) was tested. After the test was correct, the preset procedure was followed. First, antigen binding was performed for 600 s. After the binding was completed and equilibration was continued in Q Buffer for 30 s, the sensor bound to the antigen huCD3E-AA1-27-huFc-Biotin was transferred to different concentrations of antibody dilutions for binding for 120 s, and then transferred to Q Buffer for dissociation for 180 s. Finally, KD, Ka and Kd were obtained by fitting the binding and dissociation data of different concentrations of antigens and antibodies.

A further assay deals with T2, 63-scFv-LH (human).
T2 construct: scFv-Fc
The assay is described as above. The protocol: as §1, §2

In a further assay the target is T3, 79-scFv-LH (human).
T3 construct: scFv-Fc
The description is as above. The protocol:
as §1, §2

B1: huCD3E-AA1-27-huFc (Fc fusion)
chain: QDGNEEMGGITQTPYKVSISGTTVILTTHTCPPCPAPELLGGPSVFLFPPKPKDTLMISRTPEVTCVVVDVSHEDPQVKFNWYVDGVQVHNAKTKPREQQYNSTYRVVSVLTVLHQNWLDGKEYKCKVSNKALPAPIEKTISKAKGQPREPQVYTLPPSREEMTKNQVSLTCLVKGFYPSDIAVEWESNGQPENNYKTTPPVLDSDGSFFLYSKLTVDKSRWQQGNVFSCSVMHEALHNHYTQKSLSLSPGK
notes: Made in HEK293 cells, purified on Protein A/G. No linker between the two parts is mentioned; also called antigen protein
As for B1, in the assay with H2C-scFv-LH [1], the Kd was 0.0596 nM, the koff was 0.000165 s⁻¹ and the kon is 2.77e+06 M⁻¹ s⁻¹.

B2: huCD3E-AA1-27-huFc-Biotin (Fc fusion)
chain: B1 chain
modifications: biotinylated (sites not given)
notes: also called biotinylated huCD3E AA1-27-huFc
In the assay with H2C-scFv-LH [2], B2 returned a Kd of 0.318 nM, a koff of 0.000327 s⁻¹ and a kon of 1.03e+06 M⁻¹ s⁻¹. In the assay with 63-scFv-LH, this molecule displayed a Kd of 0.358 nM, an off-rate (koff) of 0.000428 s⁻¹ and a kon of 1.19e+06 M⁻¹ s⁻¹. In the assay with 79-scFv-LH, this molecule returned a Kd of 0.222 nM, a koff of 0.000184 s⁻¹ and a kon of 826000 M⁻¹ s⁻¹.
